{"source": "paper PMC8894135", "assay_in_all_cases": "cryo-EM structure; single particle analysis of extended AlgoCIS particles assembled in A. machipongonensis and purified whole, in buffer B (20 mM Tris pH 7.5, 150 mM NaCl); cap 2.5 Å, extended sheath-tube 2.4 Å, baseplate 2.7-2.9 Å, whole particle 4.4 Å", "key": {"[1]": {"target": "Alg1 (inner tube protein of AlgoCIS) (Algoriphagus machipongonensis PR1 (endogenous in A. machipongonensis))"}, "[2]": {"target": "Alg6 (plug protein of AlgoCIS) (Algoriphagus machipongonensis PR1 (endogenous in A. machipongonensis))"}, "[3]": {"target": "Alg8 (central spike protein of AlgoCIS) (Algoriphagus machipongonensis PR1 (endogenous in A. machipongonensis))"}, "[4]": {"target": "Alg11 (baseplate wedge protein of AlgoCIS, forms the spike cage) (Algoriphagus machipongonensis PR1 (endogenous in A. machipongonensis))"}, "[5]": {"target": "Alg16A (cap protein of AlgoCIS) (Algoriphagus machipongonensis PR1 (endogenous in A. machipongonensis))"}, "[6]": {"target": "Alg16B (cap adaptor protein of AlgoCIS) (Algoriphagus machipongonensis PR1 (endogenous in A. machipongonensis))"}}}
{"substance": "Alg1 (inner tube protein of AlgoCIS) (natural protein)", "values": [{"measurement": "stoichiometry N", "setting": "[1]", "value": 6}]}
{"substance": "Alg6 (plug protein of AlgoCIS) (natural protein)", "values": [{"measurement": "stoichiometry N", "setting": "[2]", "value": 3}]}
{"substance": "Alg8 (central spike protein of AlgoCIS) (natural protein)", "values": [{"measurement": "stoichiometry N", "setting": "[3]", "value": 3}]}
{"substance": "Alg11 (baseplate wedge protein of AlgoCIS, forms the spike cage) (natural protein)", "values": [{"measurement": "stoichiometry N", "setting": "[4]", "value": 6}]}
{"substance": "Alg16A (cap protein of AlgoCIS) (natural protein)", "values": [{"measurement": "stoichiometry N", "setting": "[5]", "value": 6}]}
{"substance": "Alg16B (cap adaptor protein of AlgoCIS) (natural protein)", "values": [{"measurement": "stoichiometry N", "setting": "[6]", "value": 6}]}
